Target: c-Met, endogenous in human cell lines (NCI-H441, EBC-1, MKN45, HCC827 ER15, HEK293) (human, UniProt P08581 25-1390)
Experiment: cell-based or functional assay

Sequence of c-Met, endogenous in human cell lines (NCI-H441, EBC-1, MKN45, HCC827 ER15, HEK293) (P08581 25-1390): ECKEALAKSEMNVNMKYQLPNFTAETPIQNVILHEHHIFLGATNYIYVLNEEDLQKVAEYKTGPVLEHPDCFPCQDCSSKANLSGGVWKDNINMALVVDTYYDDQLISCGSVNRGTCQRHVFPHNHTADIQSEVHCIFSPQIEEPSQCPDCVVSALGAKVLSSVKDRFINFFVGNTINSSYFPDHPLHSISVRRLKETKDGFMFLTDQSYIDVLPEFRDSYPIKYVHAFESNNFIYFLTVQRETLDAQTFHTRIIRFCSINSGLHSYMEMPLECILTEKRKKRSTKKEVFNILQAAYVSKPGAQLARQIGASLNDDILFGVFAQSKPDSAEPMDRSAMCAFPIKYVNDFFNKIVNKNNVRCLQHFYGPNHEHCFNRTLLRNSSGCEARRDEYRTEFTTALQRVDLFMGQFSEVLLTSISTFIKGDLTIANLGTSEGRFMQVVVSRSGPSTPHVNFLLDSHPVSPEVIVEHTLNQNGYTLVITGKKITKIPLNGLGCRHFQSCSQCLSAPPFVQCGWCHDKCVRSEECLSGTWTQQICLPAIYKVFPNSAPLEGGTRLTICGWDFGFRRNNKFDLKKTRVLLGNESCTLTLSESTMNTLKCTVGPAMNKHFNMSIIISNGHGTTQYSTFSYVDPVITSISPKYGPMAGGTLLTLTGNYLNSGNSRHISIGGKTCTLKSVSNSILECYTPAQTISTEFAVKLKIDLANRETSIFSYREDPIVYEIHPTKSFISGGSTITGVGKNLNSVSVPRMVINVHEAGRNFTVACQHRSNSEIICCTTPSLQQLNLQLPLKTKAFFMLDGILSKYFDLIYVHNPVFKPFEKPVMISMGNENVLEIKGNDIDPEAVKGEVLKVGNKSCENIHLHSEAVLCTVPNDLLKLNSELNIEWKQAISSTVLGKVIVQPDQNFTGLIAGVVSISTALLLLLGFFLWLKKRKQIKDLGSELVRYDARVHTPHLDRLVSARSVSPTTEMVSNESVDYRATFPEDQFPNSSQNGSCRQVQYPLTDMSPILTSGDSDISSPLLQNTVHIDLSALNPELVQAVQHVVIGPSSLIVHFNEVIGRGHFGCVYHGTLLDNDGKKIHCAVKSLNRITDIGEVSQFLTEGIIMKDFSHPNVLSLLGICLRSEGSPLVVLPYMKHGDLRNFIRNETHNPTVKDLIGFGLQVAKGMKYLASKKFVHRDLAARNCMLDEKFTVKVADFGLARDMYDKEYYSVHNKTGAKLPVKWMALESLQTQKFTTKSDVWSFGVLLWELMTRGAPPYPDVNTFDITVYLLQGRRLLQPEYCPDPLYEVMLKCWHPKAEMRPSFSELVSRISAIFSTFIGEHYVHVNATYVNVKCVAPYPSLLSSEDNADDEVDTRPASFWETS

total c-Met level by ELISA, Cbl siRNA-transformed EBC-1 cells, 5 ug/ml, 24 h, relative to control IgG: ~30%
B1: anti-c-Met antibody L3-1Y (huAbF46-H4-A1 (U6-HC7)) (antibody, V domains shown)
VH: EVQLVESGGGLVQPGGSLRLSCAASGFTFTDYYMSWVRQAPGKGLEWLGFIRNKANGYTTEYSASVKGRFTISRDNSKNTLYLQMNSLRAEDTAVYYCARDNWFAYWGQGTLVTVSS
VL: DIQMTQSPSSLSASVGDRVTITCKSSQSLLASGNQNNYLAWYQQKPGKAPKMLIIWASTRVSGVPSRFSGSGSGTDFTLTISSLQPEDFATYYCQQSYSRPYTFGQGTKVEIKR

— patent US20140105902A1 (SAMSUNG ELECTRONICS, published 2014)
